Patent publication US20070281327A1 (published 2007)
Positions count from the first letter of the chain named. Each block holds one binder with its values, some of them ahead of it.

How the values were obtained:
[1] = target: T1, human Mpl expressed on BaF3 cells (BaF3-human Mpl) (human, UniProt P40238 26-635); assay: cell-based or functional assay
T1 sequence (looked up): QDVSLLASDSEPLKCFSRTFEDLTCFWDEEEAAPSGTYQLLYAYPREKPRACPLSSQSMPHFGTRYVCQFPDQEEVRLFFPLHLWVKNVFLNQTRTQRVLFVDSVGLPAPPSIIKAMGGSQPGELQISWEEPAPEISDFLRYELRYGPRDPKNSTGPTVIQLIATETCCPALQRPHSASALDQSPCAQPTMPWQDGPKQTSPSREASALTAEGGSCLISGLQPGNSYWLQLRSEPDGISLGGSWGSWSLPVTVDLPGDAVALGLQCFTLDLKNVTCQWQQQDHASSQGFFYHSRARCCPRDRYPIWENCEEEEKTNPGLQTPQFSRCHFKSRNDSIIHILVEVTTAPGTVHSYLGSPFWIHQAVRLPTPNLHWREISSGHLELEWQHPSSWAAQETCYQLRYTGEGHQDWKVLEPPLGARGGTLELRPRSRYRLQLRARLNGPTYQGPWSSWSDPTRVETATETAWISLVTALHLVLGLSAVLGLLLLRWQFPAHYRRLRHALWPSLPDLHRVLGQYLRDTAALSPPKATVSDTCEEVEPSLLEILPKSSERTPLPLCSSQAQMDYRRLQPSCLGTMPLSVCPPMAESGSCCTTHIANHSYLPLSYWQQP

[2] = target: T2, Human Mpl-IgG Fc fusion protein (hMpl-Fc) (human, UniProt P40238 26-491); assay: ELISA on plates coated with hMpl-Fc, IgG
T2 construct: range 26-491; Expressed in CHO-DG44 cells with a 19-amino acid signal peptide from a human IgG H chain variable region, which is not part of the mature protein; No numbering scheme is named for Asp 216; also called shMPL-Fc; not shown: Fc region of human IgG-gamma1, a region downstream of Asp 216
T2 sequence: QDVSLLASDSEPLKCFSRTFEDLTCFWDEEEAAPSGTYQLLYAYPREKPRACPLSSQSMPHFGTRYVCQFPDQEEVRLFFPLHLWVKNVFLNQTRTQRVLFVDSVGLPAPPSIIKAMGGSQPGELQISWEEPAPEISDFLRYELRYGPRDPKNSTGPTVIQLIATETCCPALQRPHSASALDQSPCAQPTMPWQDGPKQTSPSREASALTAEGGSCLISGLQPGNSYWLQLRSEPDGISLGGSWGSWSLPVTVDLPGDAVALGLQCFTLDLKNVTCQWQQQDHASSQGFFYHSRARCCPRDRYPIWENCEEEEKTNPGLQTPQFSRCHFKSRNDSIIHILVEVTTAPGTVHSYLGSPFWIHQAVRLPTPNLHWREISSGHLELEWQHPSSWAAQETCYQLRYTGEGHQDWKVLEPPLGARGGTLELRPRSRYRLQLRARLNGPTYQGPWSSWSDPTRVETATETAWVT

[3] = target: T2, Human Mpl-IgG Fc fusion protein …; assay: ELISA on plates coated with hMpl-Fc, sc(Fv)2 detected by anti-FLAG M2
Description: (§1) The binding activity of anti-human Mpl single-chain antibody to hMPL-Fc was assessed using ELISA. After plates were coated with 0.5 μg/ml purified hMPL-Fc, blocking treatment was carried out using Diluent buffer. A purified product of VA130 was diluted to an appropriate concentration and added to the plates. Then, the plates were allowed to stand at room temperature for one hour. After washing with Rinse buffer, 1000-times-diluted ANTI-FLAG M2 Monoclonal Antibody (SIGMA-ALDRICH) was added. The plates were incubated at room temperature for one hour. Next, after washing with Rinse buffer, 1000-times-diluted Alkaline Phosphatase-labeled anti-mouse IgG antibody (Zymed) was added, and the plates were allowed to stand at room temperature for one hour. After washing with Rinse buffer, color development was achieved using SIGMA104 (SIGMA-ALDRICH) diluted to 1 mg/ml in substrate buffer. Color was developed for 15 minutes at room temperature and then absorbance was determined at 405 nm with Benchmark Plus.

[4] = target: human Mpl expressed on BaF3 cells (BaF3-human Mpl) (human) (UniProt P40238); assay: cell-based or functional assay
[5] = target: T2, Human Mpl-IgG Fc fusion protein …; assay: ELISA on plates coated with hMpl-Fc, diabody detected by anti-FLAG M2
Description: as §1

B1: VA130 IgG (mouse monoclonal anti-human Mpl antibody VA130) (antibody, V domains shown)
VH: QVQLQQSGPELVKPGASVKISCKASGYAFSSSWMNWVKQRPGKGLEWIGRIYPGDGDTNYNGKFKGKATLTADKSSSTAYIQLSSLTSEDSAVYFCARGYADYSFAYWGQGTLVTVSA
VL: DIVMTQAAPSVPVTPGESVSISCRSSKSLLHSNGNTYLYWFLQRPGQSPQLLIYRMSNLASGVPDRFSGSGSGTAFTLRISRVEAEDVGVYYCMQHLEYPYTFGSGTKLEIK
notes: Whole mouse IgG from a hybridoma; also called VA130 antibody; VA130 anti-human Mpl antibody
TPO-like agonist activity, BaF3-human Mpl proliferation (WST-8), EC50 [1]: > 100 nM
EC50 [2]: 0.38 nM

B2: VB16 IgG (mouse monoclonal anti-human Mpl antibody VB16) (antibody, V domains shown)
VH: QVQLQQPGTELVRPGASVKLSCKASGYTFTDYWVNWVKQRPGRGLEWIGRIHPYDSETHYNQKFKNKATLTVDKSSSTAYIQLSSLTSEDSAVYYCASGGWFASWGQGTLVTVSA
VL: B1 VL with H31Y, R79T, R82S
EC50 [2]: 0.15 nM

More lines, now with the values ahead:

EC50 [3]: 0.27 nM
Agonistic activity, Analysis using Baf-hMpl (EC50) [4]: 1.02 nM
B3: VA130 sc(Fv)2 (other)
chain: QVQLQQSGPELVKPGASVKISCKASGYAFSSSWMNWVKQRPGKGLEWIGRIYPGDGDTNYNGKFKGKATLTADKSSSTAYIQLSSLTSEDSAVYFCARGYADYSFAYWGQGTLVTVSAGGGGSGGGGSGGGGSDIVMTQAAPSVPVTPGESVSISCRSSKSLLHSNGNTYLYWFLQRPGQSPQLLIYRMSNLASGVPDRFSGSGSGTAFTLRISRVEAEDVGVYYCMQHLEYPYTFGSGTKLEIKGGGGSGGGGSGGGGSQVQLQQSGPELVKPGASVKISCKASGYAFSSSWMNWVKQRPGKGLEWIGRIYPGDGDTNYNGKFKGKATLTADKSSSTAYIQLSSLTSEDSAVYFCARGYADYSFAYWGQGTLVTVSAGGGGSGGGGSGGGGSDIVMTQAAPSVPVTPGESVSISCRSSKSLLHSNGNTYLYWFLQRPGQSPQLLIYRMSNLASGVPDRFSGSGSGTAFTLRISRVEAEDVGVYYCMQHLEYPYTFGSGTKLEIKDYKDDDDK
notes: A single polypeptide with two VH and two VL units from VA130; also called anti-human Mpl antibody sc(Fv)2; VA130 single-chain antibody

Agonistic activity, Analysis using Baf-hMpl (EC50) [4]: 0.222 nM
EC50 [5]: 0.11 nM
B4: VA130 diabody (VA130 single-chain Fv with a five-amino acid (Gly4Ser)1 linker, FLAG-tagged) (scFv)
scFv: QVQLQQSGPELVKPGASVKISCKASGYAFSSSWMNWVKQRPGKGLEWIGRIYPGDGDTNYNGKFKGKATLTADKSSSTAYIQLSSLTSEDSAVYFCARGYADYSFAYWGQGTLVTVSAGGGGSDIVMTQAAPSVPVTPGESVSISCRSSKSLLHSNGNTYLYWFLQRPGQSPQLLIYRMSNLASGVPDRFSGSGSGTAFTLRISRVEAEDVGVYYCMQHLEYPYTFGSGTKLEIKDYKDDDDK
notes: The order is VH-(Gly4Ser)1-VL-FLAG; also called VA130 db
